Among the data in paper doi:10.1101/2020.08.24.265033, “Dipeptidyl peptidase 9 triggers BRCA2 degradation by the N-degron pathway to promote DNA-damage repair” (bioRxiv, 2020) are Kd values, retold here.

This test concerns the target T1, Human recombinant DPP9 (dipeptidyl peptidase 9), His-tagged (human, UniProt Q86TI2 1-863).
T1 construct: Dipeptidyl peptidase 9, human, recombinant; Held on a Ni chip by its His tag in SPR; used in solution in the pull-down; also called purified DPP9; His-tagged DPP9; source: Sf9 cells, purified essentially as described in Pilla et al. 2012
In words: SPR; His-tagged DPP9 immobilised on a Ni-loaded NiHC1000m chip; serial dilution of BRCA2 peptides injected; 20 mM HEPES pH 7.4, 150 mM NaCl, 50 µM EDTA, 0.005 % TWEEN-20; 20°C; equilibrium binding analysis. As to conditions: both partners purified.

T1 sequence (Q86TI2 whole entry): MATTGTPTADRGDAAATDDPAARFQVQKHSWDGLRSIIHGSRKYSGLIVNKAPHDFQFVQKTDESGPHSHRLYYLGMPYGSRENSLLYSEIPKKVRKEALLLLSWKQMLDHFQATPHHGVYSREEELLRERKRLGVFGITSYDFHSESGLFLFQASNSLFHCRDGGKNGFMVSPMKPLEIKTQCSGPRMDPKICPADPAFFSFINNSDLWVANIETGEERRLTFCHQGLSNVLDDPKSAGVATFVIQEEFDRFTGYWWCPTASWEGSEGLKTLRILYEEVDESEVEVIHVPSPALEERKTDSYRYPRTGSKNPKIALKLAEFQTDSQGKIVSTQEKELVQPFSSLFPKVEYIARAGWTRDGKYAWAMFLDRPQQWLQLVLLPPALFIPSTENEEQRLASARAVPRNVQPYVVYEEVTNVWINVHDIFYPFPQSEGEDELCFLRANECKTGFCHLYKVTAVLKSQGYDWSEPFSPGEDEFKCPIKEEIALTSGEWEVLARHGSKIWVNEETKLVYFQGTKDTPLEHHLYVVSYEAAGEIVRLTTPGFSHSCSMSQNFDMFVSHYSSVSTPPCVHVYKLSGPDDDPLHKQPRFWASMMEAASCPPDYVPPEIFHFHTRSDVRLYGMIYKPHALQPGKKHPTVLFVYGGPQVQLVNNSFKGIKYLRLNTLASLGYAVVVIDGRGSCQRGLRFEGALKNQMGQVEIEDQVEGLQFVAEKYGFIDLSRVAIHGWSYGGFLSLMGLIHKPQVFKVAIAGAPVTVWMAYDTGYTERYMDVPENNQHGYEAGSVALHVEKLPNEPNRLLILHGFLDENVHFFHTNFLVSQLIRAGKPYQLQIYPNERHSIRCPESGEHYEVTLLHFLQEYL

B1: BRCA2_(1-40) synthetic peptide (first forty amino acids of BRCA2) (peptide, UniProt P51587 1-40, looked up)
peptide: MPIGSKERPTFFEIFKTRCNKADLGPISLNWFEELSSEAP
notes: BRCA2, human, residues 1-40; also called BRCA2_(1-40) N-terminal peptide; BRAC2_(1-40) peptide; source: synthetic peptide
As to B1, the dissociation constant Kd is 16.8 ± 0.7 µM.

B2: BRCA2_(3-40) synthetic peptide (truncated, lacking Met1-Pro2) (peptide, UniProt P51587 3-40, looked up)
peptide: IGSKERPTFFEIFKTRCNKADLGPISLNWFEELSSEAP
notes: BRCA2, human, residues 3-40; also called truncated BRCA2_(3-40) peptide; source: synthetic peptide
For the molecule B2, the Kd amounted to 75.3 ± 4.8 µM.

What is called Kd is the constant that tells how readily two partners part at equilibrium.
